{
  "source": "patent US20170119790A1",
  "about": "“Agents, Uses and Methods” (CYTOGUIDE A/S, priority 2009, published 2017)",
  "target": "T1, CD163 on peripheral blood monocytes (Homo sapiens, UniProt Q86VB7)",
  "T1 construct": "Freshly drawn peripheral whole blood samples or PBMC; endogenous in cells; host or cells: human peripheral blood monocytes, blood dendritic cells, monocyte-derived macrophages (healthy donors, buffy coats)",
  "T1 sequence (Q86VB7 42-1156)": "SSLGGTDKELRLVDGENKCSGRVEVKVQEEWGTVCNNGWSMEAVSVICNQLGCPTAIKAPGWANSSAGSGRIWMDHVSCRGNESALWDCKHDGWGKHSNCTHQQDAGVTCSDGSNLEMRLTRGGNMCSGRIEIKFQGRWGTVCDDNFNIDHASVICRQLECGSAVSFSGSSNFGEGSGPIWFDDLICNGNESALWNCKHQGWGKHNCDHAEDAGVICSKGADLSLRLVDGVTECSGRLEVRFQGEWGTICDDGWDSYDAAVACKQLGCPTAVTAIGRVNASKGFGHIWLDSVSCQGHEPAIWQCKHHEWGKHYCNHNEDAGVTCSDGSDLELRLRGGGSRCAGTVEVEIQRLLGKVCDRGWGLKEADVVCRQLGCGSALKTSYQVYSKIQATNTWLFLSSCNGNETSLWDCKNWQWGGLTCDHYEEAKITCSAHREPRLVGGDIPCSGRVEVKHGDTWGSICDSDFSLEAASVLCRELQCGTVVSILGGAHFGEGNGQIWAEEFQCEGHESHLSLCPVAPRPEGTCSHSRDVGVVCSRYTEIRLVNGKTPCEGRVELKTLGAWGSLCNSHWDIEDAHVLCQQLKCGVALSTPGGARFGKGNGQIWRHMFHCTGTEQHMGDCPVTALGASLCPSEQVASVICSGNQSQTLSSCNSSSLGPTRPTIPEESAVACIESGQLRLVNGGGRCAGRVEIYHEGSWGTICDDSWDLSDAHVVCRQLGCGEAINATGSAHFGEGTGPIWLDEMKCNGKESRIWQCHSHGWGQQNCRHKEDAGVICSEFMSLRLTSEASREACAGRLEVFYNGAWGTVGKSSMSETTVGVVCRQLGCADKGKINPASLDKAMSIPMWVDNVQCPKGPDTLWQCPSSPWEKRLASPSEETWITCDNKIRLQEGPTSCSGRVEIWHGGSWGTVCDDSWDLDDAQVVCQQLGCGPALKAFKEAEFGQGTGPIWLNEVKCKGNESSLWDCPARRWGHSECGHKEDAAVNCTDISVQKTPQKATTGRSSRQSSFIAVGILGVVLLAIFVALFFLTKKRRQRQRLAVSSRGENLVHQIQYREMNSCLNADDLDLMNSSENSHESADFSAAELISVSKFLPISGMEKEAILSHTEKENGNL",
  "test": "Quantitative flow cytometry of monocyte surface CD163 expression using different anti-CD163 mAb clones",
  "format": "cell-based",
  "procedure": "EDTA, citrate, and heparin stabilized peripheral blood samples were obtained by standard venipuncture from healthy donors in Venoject® vacutainers (Terumo Europe NV, Leuven, Belgium). Peripheral blood mononuclear cells (PBMC) were isolated from leukocyte-rich buffy coats by gradient separation centrifugation using Accuspin System Histopaque®—1077 (Sigma-Aldrich Denmark A/S, Broendby, Denmark). Buffy coats were prepared from units of whole blood (approximately 472 ml) anti-coagulated with CPD-A (Baxter, Munich, Germany) donated by healthy volunteers. Approval for the study was obtained from the regional ethical committee (j.nr. 20040068).\nFreshly drawn peripheral whole blood samples or PBMC (approx. 3×10^6 cells) were stained with isotype-matched control antibody or a relevant antibody for one hour at 4° C. in the dark. When staining whole blood, erythrocytes were lysed for 15 min with 4° C. cold solution of ammonium chloride. When indirect immunofluoresence staining was required, cells were initially incubated with unconjugated primary CD163 antibody for one hour at 4° C., washed three times with D-PBS, pH 7.4, followed by incubation with goat anti-mouse-conjugated Alexa-Fluor® 488 (1:200 dilution; Molecular Probes, Invitrogen, Carlsbad, Calif., USA) for one hour at 4° C. in the dark. The stained cells were washed twice three D-PBS, pH 7.4, re-suspended in 400 μl FACSflow (Becton Dickinson, San Jose, Calif., USA), and kept on ice until analysis. All samples were analyzed using a FACSCalibur flow cytometer and compensated for spectral overlap using FlowJo for Macintosh software version 8.3 (TreeStar, San Carlos, Calif.). For CD163 density quantitation, flow cytometric estimation of antibodies bound/cell (ABCs) was performed using Quantibrite PE beads (Becton Dickinson, San Jose, Calif., USA) as recommended by the manufacturer. After the cells were stained, as detailed, a set of 4 pre-calibrated fluorescently labeled beads was used for standardization before the samples were acquired. The Quantibrite PE beads were run at the same instrument settings as the assay, and the linear regression obtained using the Quantibrite PE beads was used to convert the FL2 linear fluorescence staining of cell population into the number of (CD163) PE molecules bound per cell (ABC).",
  "key": {"[1]": {"conditions": "PBMC isolated by density gradient centrifugation"}, "[2]": {"conditions": "Table 2, second column pair, head prints CITRATE"}, "[3]": {"conditions": "anticoagulant CITRATE, whole blood (Table 1, FIG. 2-3)"}, "[4]": {"conditions": "anticoagulant EDTA, whole blood (Table 1, FIG. 2-3)"}, "[5]": {"conditions": "anticoagulant HEPARIN, whole blood (Table 1, FIG. 2-3)"}, "[6]": {"conditions": "freshly drawn EDTA stabilized whole blood, FIG. 1"}},
  "note": "“And” between values parts separate entries of the source, which are not always exact repeats. Identical values can stand only once.",
  "data": [
    {"molecule": "MAC2-158: anti-human CD163 murine mAb, binds SRCR domain 1, IQ Products; VH SEQ ID NO: 1, VL SEQ ID NO: 2 (antibody, V domains shown, Mac2-158 VH; Mac2-158 VL) VH: DVQLQESGPGLVKPSQSLSLTCTVTGYSITSDYAWNWIRQFPGNKLEWMGYITYSGITNYNPSLKSQISITRDTSKNQFFLQLNSVTTEDTATYYCVSGTYYFDYWGQGTTLTVSS VL: SVVMTQTPKSLLISIGDRVTITCKASQSVSSDVAWFQQKPGQSPKPLIYYASNRYTGVPDRFTGSGYGTDFTFTISSVQAEDLAVYFCGQDYTSPRTFGGGTKLEIKRA", "values": [
      {"measurement": "density of CD163 receptors per monocyte", "setting": "[1]", "value": "11,417"},
      {"measurement": "fraction of CD14+ monocytes stained for CD163", "setting": "[1]", "value": 81.10, "unit": "%"},
      {"measurement": "% CD163+ monocytes", "setting": "Table 2, first column pair, head prints EDTA", "value": 84.48, "unit": "%"},
      {"measurement": "% CD163+ monocytes", "setting": "[2]", "value": 87.23, "unit": "%"},
      {"measurement": "CD163 density on monocytes", "setting": "[2]", "value": 17700, "unit": "receptors/monocyte"},
      {"measurement": "% CD163+ monocytes", "setting": "Table 2, third column pair, head prints HEPARIN", "value": 83.97, "unit": "%"},
      {"measurement": "% CD163+ monocytes", "setting": "[3]", "value": "83.97% and 81.97%"},
      {"measurement": "CD163 density on monocytes", "setting": "[3]", "value": 17.726},
      {"measurement": "% CD163+ monocytes", "setting": "[4]", "value": "87.23% and 82.23%"},
      {"measurement": "CD163 density on monocytes", "setting": "[4]", "value": 17.725},
      {"measurement": "% CD163+ monocytes", "setting": "[5]", "value": 84.43, "unit": "%"},
      {"measurement": "CD163 density monocytes", "setting": "[5]", "value": 28.029},
      {"measurement": "density of CD163 receptors per monocyte", "setting": "[6]", "value": "17,725"},
      {"measurement": "fraction of peripheral blood monocytes (CD14+) recognized", "setting": "[6]", "value": 84.06, "unit": "%"},
      {"measurement": "proportion of circulating CD163 expressing monocytes identified", "setting": "summary statement", "value": "> 80", "unit": "%"}
    ]}
  ]
}
